From patent US8796183B2, “Template fixed beta-hairpin loop mimetics and their use in phage display” (Polyphor Ltd., priority 2003, dated 2014)
Positions of bridges follow the written chain, without caps; N, C: chain ends. No end group written: not given here.

Assay: Circular dichroism
Format: physicochemical
Conditions: linear precursor of the compound (before disulfide bridge formation), 10^−4 M in water as TFA salt, room temperature (FIG. 7)
Description: Circular dichroism measurements are sensitive to the secondary structure of both peptides and proteins and have been extensively used to examine the conformation of both (M. Jourdan, S. R. Griffiths-Jones, M. S. Searle, Eur. J. Biochem. 2000, 267, 3539-3548; J. T. Pelto, L. R. Mc. Lean, Analytical Biochemistry, 2000, 277, 167-176).
Circular Dichroism spectra were obtained on a Jasco J-715 spectropolarimeter, equipped with a spectra manager for windows 95/NT. Version 1.52.01 [Build2]. All measurements were performed at room temperature in quartz cells of 0.1 cm path length in water. Spectra were recorded with a 1 nm bandwidth, five scans were collected to improve the signal-to-noise ratio and the solvent baseline was recorded and subtracted from the spectra of the samples. All CD spectra were smoothed (with the same value), and are reported as molecular ellipticity units (Mol. Ellip.) of peptide residue.
Measurement parameters: Band width: 1.0 nm, response: 1 s, sensitivity: standard, measurement range: 240-190 nm, data pitch: 0.5 nm, scanning speed: 50 nm/min. Concentration of the linear deprotected, purified peptide solutions: 10^−4 M in water as TFA salts. The pH and purity of the linear deprotected, purified peptides as precursors of the following examples were: Example 3: pH 6.38, purity 91%; Example 4: pH 6.77, purity 89%; Example 5: pH 6.01, purity 98%; Example 9: pH 6.00, purity 94%.

In the case of “Example 5: Ac-NH-Cys-Thr-Lys-Trp-Phe-Leu-Ala-His-Tyr-Ala-Thr-Cys-H, cysteines linked by a disulfide bridge; reference not having a template (Ac-CTKWFLAHYATC; disulfide 1-12 (inferred); also: C-terminus written as -H)”, the “CD-spectrum: secondary structure content” value is reported as “high content of coil- and α-helix structure and traces of a β-sheet structure”.

With “Example 9: Ac-NH-Glu-Thr-Cys-Thr-Lys-Trp-Phe-Leu-Ala-His-Tyr-Ala-Thr-Cys-Thr-Lys-H, cysteines linked by a disulfide bridge (Ac-ETCTKWFLAHYATCTK; disulfide 3-14 (inferred); also: C-terminus written as -H)” the “CD-spectrum: secondary structure content” value was “high content of β-sheet structure and a β-turn structure”.

In the case of “Example 4: Ac-NH-Glu-Thr-Cys-Thr-Lys-Trp-Phe-Ser-Asn-His-Tyr-Gln-Thr-Cys-Thr-Lys-H, cysteines linked by a disulfide bridge (Ac-ETCTKWFSNHYQTCTK; disulfide 3-14 (inferred); also: C-terminus written as -H)”, the “CD-spectrum: secondary structure content” value is reported as “high content of a β-sheet structure”.

For “Example 3: Ac-NH-Cys-Thr-Lys-Trp-Phe-Ser-Asn-His-Tyr-Gln-Thr-Cys-H, cysteines linked by a disulfide bridge; reference not having a template (Ac-CTKWFSNHYQTC; disulfide 1-12 (inferred); also: C-terminus written as -H)”, the “CD-spectrum: secondary structure content” value was “mixture of a coil structure and a β-sheet structure”.
